Data taken from patent publication US5935927A, “Compositions and methods for stimulating amyloid removal in amyloidogenic diseases using advanced glycosylation endproducts” (The Picower Institute For Medical Research, priority 1996, dated 1999).
Where two headings read alike, the source gives them in different places.

How the values were obtained:
[1] = test system: insulin-producing β-cells of the adult pancreas; conditions: human cells; Lorenzo et al. 1994; cited from earlier work
[2] = test system: insulin-producing β-cells of the adult pancreas; conditions: rat cells; Lorenzo et al. 1994; cited from earlier work
[3] = target: T1, soluble βAP (Homo sapiens, UniProt P05067); experiment: Thioflavin-T fluorescence assay of βAP aggregation and seeding; assay type: biochemical; conditions: for effect on fluorescent aggregate formation of βAP: 400 μM βAP 1-28, 0.1M sodium acetate pH 7.0, 100 mM glucose, 0.05M aminoguanidine, FIG. 4; for spontaneous formation of Thioflavin-T fluorescent aggregates: FIG. 1
T1 construct: Co-incubation of 400 μM βAP 1-28 in 0.1M sodium acetate, pH 7.0, with 100 mM glucose; purchased Bachem (Torrance, Calif.); host or cells: chemical synthesis
T1 sequence (P05067 672-699): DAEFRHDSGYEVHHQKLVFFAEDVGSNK
Text: Aggregation and Seeding Reactions. Synthetic, HPLC-purified peptides representing the first 28 (βAP 1-28) and the first 40 amino acids (βAP 1-40) of the 42 amino acid βAP were obtained from Bachem (Torrance, Calif.). Aggregation of soluble βAP 1-28 or βAP 1-40 at different concentrations was initiated by addition of 0.1M sodium acetate (NaOAc) at the indicated pH (between 4.7 and 7.5) and continued for the indicated times. Quantitative aggregate formation with sub-millimolar βAP concentrations was detected using the procedure of LeVine (1992, Protein Science 2:404-410). Briefly, fluorescence of aggregates added to 10 μM Thioflavin-T (Aldrich)/50 mM potassium phosphate buffer, pH 6.0, was measured upon excitation at 450±5 nm and detection of emission at 482±10 mn on a Perkin Elmer LS-50B spectrofluorimeter. Where indicated, small amounts of pre-formed aggregates or "nucleation seeds" were added to the soluble βAP and aggregation initiated with 0.1M sodium acetate.
Generations of "Seeds". […] After incubation, protein concentrations of seed preparations were measured and adjusted with buffer to 150 μM final concentration. […] Lysines at positions 16 and 28 of βAP contain primary amino groups which may react with reducing sugars to generate advanced glycosylation endproducts of AGEs. Indicated amounts of glucose and/or aminoguanidine, a potent inhibitor of advanced glycation and crosslink formation (Brownlee et al., 1986, Science 232:1629-1632), were also added to solutions of βAP before sodium acetate in some experiments.

Compound: human amylin fibrils: fibrils of the 37 amino acid islet amyloid polypeptide (IAPP), amylin (KCNTATCATQRLANFLVHSSNNFGAILSSTNVGSNTY; Islet amyloid polypeptide fibrils; UniProt P10997 34-70, looked up)
- toxicity to β-cells [1]: toxic
- toxicity to β-cells [2]: toxic

Compound: O=C[C@H](O)[C@@H](O)[C@H](O)[C@H](O)CO [glucose]
- effect on fluorescent aggregate formation of βAP [3]: stimulates fluorescent aggregate formation

Compound: βAP 1-28: synthetic peptide representing the first 28 amino acids of the 42 amino acid βAP
- spontaneous formation of Thioflavin-T fluorescent aggregates ([3]; 600 μM, pH 7.2): spontaneously and rapidly formed Thioflavin-T fluorescent aggregates within minutes
- spontaneous formation of Thioflavin-T fluorescent aggregates ([3]; concentrations below 300 μM): aggregated very slowly with a considerable lag before fluorescent aggregates were measurable

Compound: N=C(N)NN [aminoguanidine]
- effect on fluorescent aggregate formation of βAP [3]: can inhibit the AGE-enhanced aggregation of βAP
